Results reported in publication PMC8302205.
Substitutions are numbered along the chain they refer to. Numbers in names are those of the source.

Substrate: C[N+](C)(C)[C@@H](Cc1cnc[nH]1)C(=O)[O-]
Assay: purified protein
Type: biochemical, Chlorobium limicola
Settings: 0.116 mM K2Sx, 50 mM KPi pH 8.0, 25 °C

B1: EanB (Chlorobium limicola DSM 245) (protein)
chain: MQNKNFRAPQSEAIGILYKLIETGSKHKNMYDHTEITTDSLLALLGSEKVKIIDVRSADAYNGWRMRGEVRGGHIKGAKSLPAKWLTDPEWLNIVRFKQIRPEDAIVLYGYTPEECEQTATRFKENGYNNVSVFHRFHPDWTGNDAFPMDRLEQYNRLVPAEWVNGLISGEEIPEYDNDTFIVCHAHYRNRDAYLSGHIPGATDMDTLALESPETWNRRTPEELKKALEEHGITASTTVVLYGKFMHPDNADEFPGSAAGHIGAIRLAFIMMYAGVEDVRVLNGGYQSWTDAGFAISKDDVPKTTVPEFGAPIPSRPEFAVDIDEAKEMLQSEDSDLVCVRSYPEYIGEVSGYNYIKKKGRIPGAIFAECGSDAYHMENYRNHDHTTREYHEIEDIWAKSGIIPKKHLAFYCGTGWRGSEAWFNALLMGWPRVSVYDGGWFEWSNDPENPYETGVPK
In the case of B1, the Km is reported as 69.7 ± 8.7 µM and the kcat is reported as 0.0113 ± 0.00017 s⁻¹.

B2: EanB (Chlorobium limicola DSM 245; C116A/C184A/C339A/C370A) (protein)
chain: B1 chain with C116A, C184A, C339A, C370A
B2 showed a Km (EanB C412-only variant) of 65.9 ± 3.4 µM and a kcat (EanB C412-only variant) of 0.0025 ± 0.00017 s⁻¹.
